Laboratory results: patent EP4772624A1

Target: human IgG1 antibody against KLH (keyhole limpet hemocyanin)
Assay: cell-based or functional assay

Substance: wild-type IdeZ-mouse Fc fusion protein (from UniProt P01868 103-324)
- cleavage of human IgG1 antibody (SDS-PAGE, reducing; 37 C, 2 h): highest concentration ratio of antibody to fusion protein at which cleavage was confirmed (times (antibody to fusion protein)): 33
